For one assay, the target named is PKC-α (Homo sapiens, UniProt P17252). The assay can be described thus: ELISA-based competitive binding assay with purified PKC isoform. Conditions: for Affinity for PKC isoform α: Purified isoform. On the set-up: key to Affinity for PKC isoform α: —: no detectable affinity; Low to very low affinity at 10X or 20X or both PRE concentrations in at least one cell line in the cell extract assay; Low affinity in purified isoform assay.; Moderate affinity at 10X or 20X or both PRE concentrations in at least one cell line in the cell extract assay.; High affinity at 10X or 20X or both PRE concentrations in at least one cell line in the cell extract assay; High affinity in purified isoform assay. The method, then: Peptides PRE 1, 2, 3, 4, 5, 6, 7, 8, 9, 10, 11, 12 and 13 (see Table 3) were tested for their ability to interfere with binding of PKC isoform-specific antibodies to their target PKC isoforms using a competitive binding assay and purified PKC isoforms.
Procedure: Competitive binding was assessed using a 96 well plate ELISA-based assay as described below.
Greiner 96 well ELISA plates were coated with the appropriate PKC isoform diluted in PBSN (PBS with Calcium/Magnesium+0.05% Sodium azide w/w). 50 μL/well at 250 ng/mL was used. Control wells contained PBSN only. Plates were incubated overnight at 4° C.
The plates were washed 3 times with 200 μL of dH2O per well, then 100 μL of blocking solution was added per well and the plate incubated for 1 h at 37° C. The washing steps with dH2O were repeated and 50 μL of the appropriate PRE solution (PRE stock solution [20 mM in DMSO] diluted in PBSN) was added and the plate incubated for 1 h at room temperature.
After incubation, 5 μL of 1.1:400 anti-PKC (isoform specific antibody) was added per well (to provide a final concentration of 1:4000). For PKC-epsilon, 1.1:800 dilution was used and for PKC-zeta a 1.1:100 dilution was used due to high and low binding affinity, respectively. The plates were then incubated 1 h at room temperature, followed by washing with dH2O as described above.
50 μL of 1:1000 dilution of Alkaline Phosphatase (AP) conjugated antibody (anti-rabbit for all except zeta, which was anti-goat) was then added and the plate incubated for 1 h at room temperature. Washing with dH2O was then repeated. Finally, 100 μL of pNPP solution in pNPP buffer (2 mM MgCl2, 100 mM Sodium bicarbonate in water, pH 9.8) was added to all wells and incubated for 8 minutes for α, βI, βII ε, and ζ, or for 15-20 mins for δ (until sufficient coloration is observed). The reaction was stopped by addition of Stop solution (2N NaOH) and the absorbance at 405 nm was read on a Galaxy Plate reader.
Controls were PKC without PRE; blank controls, and controls containing the final concentrations of DMSO used for solubilizing the PREs. The non-specific binding capacity related to DMSO was also measured.
The antibodies used were as follows: anti-PKC α (Cat. No. SC-208); anti-PKC βI (Cat. No. SC-209); anti-PKC βII (Cat. No. SC-210); anti-PKC δ (Cat. No. SC-213); anti-PKC ε (Cat. No. SC-214); anti-PKC ζ (Cat. No. SC-216-G) (all from Santa Cruz Biotechnology, Inc.). The AP-conjugated antibodies were obtained from Jackson Immuno Research Laboratories (West Grove, Pa.).
Calculations: The OD values measured at 405 nm represent the free PKC coated per well.
OD405 PKC alone−Blank OD405 of each sample=OD405 coated isoform
(OD405 of sample X/OD405 coated isoform)×100=% n that represents the percentage of X binding compared to control.
100-% n measures the relative binding capacity of X towards the tested isoform.
The apparent binding capacity of the DMSO samples was then subtracted from X binding capacity.
All measurements were made in triplicate and the values in the table represent the averaged calculated binding capacity values after subtraction of the DMSO apparent binding capacity (averaged from 12 values, respectively 10.80, 11.20 and 16.40 corresponding to the concentrations of DMSO used to dilute the […] at 200, 100 and 50 μM respectively). The results allow for quantitative comparison of the binding capacity of each PRE towards an individual isoform within each table, but not among isoforms due to differences in sensitivity of the specific antibodies toward the secondary antibody. This applies particularly to PKC-delta. As noted above, the colour development duration was increased 2-3 times and, as a result, the OD405 measurements may be overestimated for this isoform.
On the technique in general: ELISA stands for enzyme-linked immunosorbent assay.

Another assay addresses PKC-δ (Homo sapiens, UniProt Q05655). The assay can be described thus: Competitive binding assay using cell extracts (Western blot). The arrangement: cytoplasmic extracts from different cell lines expressing appropriate PKC isoforms; endogenous in cells; host or cells: H661, MDAMB231, LS180, T24; key: —: no detectable affinity; Low to very low affinity at 10X or 20X or both PRE concentrations in at least one cell line in the cell extract assay; Low affinity in purified isoform assay.; Moderate affinity at 10X or 20X or both PRE concentrations in at least one cell line in the cell extract assay.; High affinity at 10X or 20X or both PRE concentrations in at least one cell line in the cell extract assay; High affinity in purified isoform assay. Conditions: Cell extract; PRE 10X or 20X antibody concentration. Here is the method:
Binding efficiency and specificity of the peptides PRE 2, 3, 4, 5, 6, 7, 8, 9, 10, 11, 12 and 13 (see Table 4) was also tested using cytoplasmic extracts from different cell lines expressing appropriate PKC isoforms as described for Example 1. Briefly, the protein cytoplasmic extracts were separated by electrophoresis and transferred onto nitrocellulose membranes by standard Western blotting procedures. The bands on the Western blots were detected with matching primary antibodies and alkaline phosphatase conjugated secondary antibody. The bands were then scanned and the relative density measurements obtained.
This procedure to assess the binding characteristics of the PREs is based on competition binding of the PRE with the primary anti-isoform PKC specific antibodies. The lower the measured band density, the greater the binding of the PRE to the PKC isoform. The PREs were added at 10 and 20 times (10×, 20×) the primary antibody concentration, according to classical competition between antigenic peptide and primary antibody. The following cell lines (obtained from the ATCC) were used: H661—NCI human lung carcinoma NSCLC; MDAMB231—human highly invasive breast cancer cell line from pleural effusion; LS180—human colon adenocarcinoma; LnCAP—human prostate adenocarcinoma; CCD16Lu—human lung fibroblasts; Du145—human prostate carcinoma brain metastasis, and T24—human bladder carcinoma.
In these cases, the 20× band density figures relative to control and 10× values were reliable.
Background: Immunoblotting shows a protein as a band on a membrane.

Where a SMILES comes first, the peptide text is derived from it. [ ]: non-standard residue; d: D form.

PKC-δ, sequence (Q05655 whole entry, canonical isoform): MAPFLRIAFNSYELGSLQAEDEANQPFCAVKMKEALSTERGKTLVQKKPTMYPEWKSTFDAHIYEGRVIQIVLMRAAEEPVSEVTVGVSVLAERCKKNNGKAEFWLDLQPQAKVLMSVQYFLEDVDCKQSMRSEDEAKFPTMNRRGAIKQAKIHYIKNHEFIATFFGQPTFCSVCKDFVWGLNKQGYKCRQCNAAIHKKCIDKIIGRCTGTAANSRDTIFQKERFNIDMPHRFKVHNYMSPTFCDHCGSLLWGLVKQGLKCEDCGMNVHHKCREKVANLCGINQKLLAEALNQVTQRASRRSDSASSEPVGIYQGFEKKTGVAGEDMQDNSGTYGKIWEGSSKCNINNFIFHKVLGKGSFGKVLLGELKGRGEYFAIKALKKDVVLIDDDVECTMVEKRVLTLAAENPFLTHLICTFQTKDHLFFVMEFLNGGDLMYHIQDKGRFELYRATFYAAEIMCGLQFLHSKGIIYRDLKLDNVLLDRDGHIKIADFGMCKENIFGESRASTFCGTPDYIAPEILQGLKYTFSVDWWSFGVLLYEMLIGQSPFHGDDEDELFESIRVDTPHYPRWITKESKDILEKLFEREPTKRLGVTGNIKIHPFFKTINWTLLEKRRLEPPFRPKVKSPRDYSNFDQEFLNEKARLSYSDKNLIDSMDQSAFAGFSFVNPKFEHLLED

Regarding `CC[C@H](C)[C@H](NC(=O)[C@H](CO)NC(=O)[C@@H](NC(=O)CNC(=O)[C@@H](NC(=O)[C@H](CC(C)C)NC(=O)[C@H](CC(N)=O)NC(=O)[C@H](CCC(N)=O)NC(=O)[C@H](C)NC(=O)[C@H](CC(=O)O)NC(=O)CNC(=O)CNC(=O)[C@H](CCCCN)NC(=O)[C@@H](NC(=O)[C@H](CCC(=O)O)NC(=O)[C@H](CCC(N)=O)NC(=O)[C@@H](NC(=O)CNC(=O)[C@H](CCCCN)NC(=O)[C@H](C)NC(C)=O)[C@@H](C)CC)C(C)C)[C@@H](C)CC)[C@@H](C)CC)C(N)=O` [PRE 3] (Ac-AKGIQEVKGGDAQNLIGISI-NH2), the “Affinity for PKC isoform α” value on PKC-α is “H”. On PKC-δ, the “Affinity for PKC isoform δ” value is given as “H”.
Consider `CC[C@H](C)[C@H](NC(=O)[C@H](CO)NC(=O)[C@@H](NC(=O)CNC(=O)[C@@H](NC(=O)[C@H](CC(C)C)NC(=O)[C@H](CC(N)=O)NC(=O)[C@H](CCC(N)=O)NC(=O)[C@H](C)NC(=O)[C@H](CC(=O)O)NC(=O)[C@H](CCCCN)NC(C)=O)[C@@H](C)CC)[C@@H](C)CC)C(N)=O` [PRE 4, Ac-KDAQNLIGISI-NH2] (Ac-KDAQNLIGISI-NH2), for which the “Affinity for PKC isoform α” value on PKC-α was “H”. Moreover, on PKC-δ, the “Affinity for PKC isoform δ” value is “—”.
As to `CC[C@H](C)[C@H](NC(=O)[C@H](CO)NC(=O)[C@@H](NC(=O)CNC(=O)[C@@H](NC(=O)[C@H](CC(C)C)NC(=O)[C@H](CC(N)=O)NC(=O)[C@H](CCC(N)=O)NC(=O)[C@H](C)NC(=O)[C@H](CC(=O)O)NC(=O)[C@H](CCCCN)NC(=O)CNC(=O)CNC(=O)[C@H](CCCCN)NC(=O)[C@@H](NC(=O)[C@H](CCC(=O)O)NC(=O)[C@H](CCC(N)=O)NC(=O)[C@@H](NC(=O)CNC(=O)[C@H](CCCCN)NC(=O)[C@H](C)NC(C)=O)[C@@H](C)CC)C(C)C)[C@@H](C)CC)[C@@H](C)CC)C(N)=O` [PRE 5] (Ac-AKGIQEVKGGKDAQNLIGISI-NH2), at PKC-α (PRE 50 μM, purified PKC-α, read-out: calculated binding capacity (100-% n, DMSO apparent binding subtracted)), the inhibition at 50 µM was 0%. In addition, at PKC-α (PRE 100 μM, purified PKC-α, read-out: calculated binding capacity (100-% n, DMSO apparent binding subtracted)), the inhibition at 100 µM was 0%. In addition, the inhibition at 200 µM on PKC-α (PRE 200 μM, purified PKC-α, read-out: calculated binding capacity (100-% n, DMSO apparent binding subtracted)) was 0%. At PKC-α, the “Affinity for PKC isoform α” value was “—”. Besides, the “Affinity for PKC isoform δ” value at PKC-δ is listed as “—”.
Ac-ISIGILNQADK-NH2 [PRE 10]: the “Affinity for PKC isoform α” value with PKC-α is listed as “—”. Moreover, the “Affinity for PKC isoform δ” value with PKC-δ was “H”.
Regarding “Ac-ISIGILQNADK-NH2 (not fully specified; printed as Ac-ISIGILQNADK-NH2) [PRE 7]”, the “Affinity for PKC isoform α” value with PKC-α is reported as “L”. Moreover, the “Affinity for PKC isoform δ” value with PKC-δ is listed as “L”.
Take Ac-KDANQLIGISI-NH2 [PRE 6]: in the assay with PKC-α, the “Affinity for PKC isoform α” value is recorded as “—”. Besides, in the assay with PKC-δ, the “Affinity for PKC isoform δ” value was “M/H”.
In the case of Ac-KDAQNLI-NH2 [PRE 12], the “Affinity for PKC isoform α” value with PKC-α was “—”. Also, in the assay with PKC-δ, the “Affinity for PKC isoform δ” value was “—”.
In the case of Ac-RDAQNLI-NH2 [PRE 13], in the assay with PKC-α, the “Affinity for PKC isoform α” value was “—”. For the same compound, in the assay with PKC-δ, the “Affinity for PKC isoform δ” value was “—”.
Consider Ac-RDAQNLIGISI-NH2 [PRE 11], for which the “Affinity for PKC isoform α” value with PKC-α is “L”. Further, in the assay with PKC-δ, the “Affinity for PKC isoform δ” value was “—”.
Take “Ac-isigilqnadk-NH2 (Ac-[dI][dS][dI]G[dI][dL][dQ][dN][dA][dD][dK]-NH2; SMILES CC[C@@H](C)[C@@H](NC(C)=O)C(=O)N[C@H](CO)C(=O)N[C@@H](C(=O)NCC(=O)N[C@@H](C(=O)N[C@H](CC(C)C)C(=O)N[C@H](CCC(N)=O)C(=O)N[C@H](CC(N)=O)C(=O)N[C@H](C)C(=O)N[C@H](CC(=O)O)C(=O)N[C@H](CCCCN)C(N)=O)[C@H](C)CC)[C@H](C)CC) [PRE 9]”: the “calculated binding capacity (100-% n, DMSO apparent binding subtracted)” value with PKC-α (PRE 100 μM, purified PKC-α) is recorded as 5.35%. Besides, the “Affinity for PKC isoform α” value with PKC-α is recorded as “—”. Also, the “Affinity for PKC isoform δ” value in the assay with PKC-δ is “H”.
As for ILEDKGGDAQNLIGISI [PRE 8], the “Affinity for PKC isoform α” value with PKC-α is reported as “—”. Also, the “Affinity for PKC isoform δ” value in the assay with PKC-δ is on record as “L”.
Consider RRKKGGKDFVVKR [PRE 1], for which, in the assay with PKC-α, the “Affinity for PKC isoform α” value is given as “—”. Besides, the “Affinity for PKC isoform δ” value with PKC-δ was “—”.

Values taken from patent US20110039770A1, “INHIBITORS OF PROTEIN KINASE C ISOFORMS AND USES THEREOF” (PHARMAGAP INC., priority 2005, published 2011).
